Assay results taken from patent US20020111309A1.

Experiments:
[1] = molecular target: Aβ (1-40), beta-amyloid protein of Alzheimer's disease (UniProt P05067); assay: cell-based or functional assay
[2] = molecular target: Aβ (1-40), beta-amyloid protein of Alzheimer's disease (UniProt P05067); assay: solid phase binding immunoassay, Aβ (1-40) on microtiter wells, laminin in solution, anti-laminin detection, one-site fit

Aβ (1-40), beta-amyloid protein of Alzheimer's disease, sequence (P05067 672-711 limits assumed): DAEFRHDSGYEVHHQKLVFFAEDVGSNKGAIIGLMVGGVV

Thioflavin T fluorescence (Aβ (1-40) amyloid fibril formation), 25 µM Aβ with 100 nM laminin, 1 week [1]: 27.1 fold lower | Thioflavin T fluorescence (Aβ (1-40) amyloid fibril formation), 25 µM Aβ with 100 nM laminin, 1 hour [1]: 2.9 fold lower | Thioflavin T fluorescence (Aβ (1-40) amyloid fibril formation), 25 µM Aβ with 100 nM laminin, 1 day [1]: 4.6 fold lower | Thioflavin T fluorescence (Aβ (1-40) amyloid fibril formation), 25 µM Aβ with 100 nM laminin, 3 days [1]: 30.6 fold lower | Thioflavin T fluorescence (Aβ fibrillogenesis), second study, 25 µM Aβ with 100 nM laminin, 1 week (fold decrease) [1]: 21 | Thioflavin T fluorescence (Aβ fibrillogenesis), second study, 25 µM Aβ with 100 nM laminin, 1 day (fold decrease) [1]: 9 | Thioflavin T fluorescence (Aβ fibrillogenesis), second study, 25 µM Aβ with 100 nM laminin, 3 days (fold decrease) [1]: 9 | dissolution of pre-formed Aβ amyloid fibrils (Thioflavin T fluorometry, 4 days), 16 nM laminin [1]: 25% | dissolution of pre-formed Aβ amyloid fibrils (Thioflavin T fluorometry, 4 days), 31 nM laminin [1]: 28% | dissolution of pre-formed Aβ amyloid fibrils (Thioflavin T fluorometry, 4 days), 63 nM laminin [1]: 39% | dissolution of pre-formed Aβ amyloid fibrils (Thioflavin T fluorometry, 4 days), 125 nM laminin [1]: 41% | Kd [2]: 2.7 nM
Substance: Engelbreth-Holm-Swarm (EHS) mouse tumor laminin, P02468 34-1607
